# In the DeepSol protein solubility set:
# Assay: soluble on expression in E. coli; label from the status in PepcDB or PDB records
row,Sequence,soluble on expression in E. coli
1,MSLRIDHSGSCVWLKMQKPRFSFAVLLPSETMRRQFTRNTSNMKTELTLLEQTLTLHRFPKRNNETLQAWDAGDEYLIQHVEQLALPESSHIVIINDHFGTLSCWFSQKHKVSMMSDSYIAHQATQANLQQNQRPPVQLLTTLDPVPNDASVVLLQLPKSNRHLVWILSQLRKALSPNIPIIAVNKAKEIHTSTLNLFEKHLGPTTTSLAWKKHRLVFSSATVNPANEVNPECGWSIEPYAITLTNLPNVYSGESLDLGSRFILEHLPADPTLEDFIDLGCGNGVLSVRLGQLNPQAKITCVDESFMAIASAQKNLHDNLGKRDIHCIANNCLDGFPAHSSSMIVCNPPFHQQQTITDHIAWQMFCDSKHVLKKGGKLWVIGNRHLGYDVKLARLFGKSHVRVIANNSKFVILQAIKSEGHHHHHH,not soluble
2,MAHHHHHHMLESFEFDQERKEALNTVAELIASTIEGAESQDVHDVLSSSLHLPHNWQEIVQKRAEQRRKLSATFTLFCEETIATPSTDGNAALDISEAPATCFLPELRPKTMPPVTTSATRGFECPSCGNHWDVVDARKSLRNSNTSSAVRELSNADVGFCPVCEDI,not soluble
3,TRGAKDTVMIVNAQGGMEPREVTVAQQQGTNWIVTSGLKDGDKVVVEGISIAGITGAKKVTPKEWASSENQAAAPQSGVQTASEAKPASEAK,not soluble
4,AIAPAKSPSTRKKRARTKDEDEENVDTGNQTTAPTFRDKNLQLVHDFLASQNRPFSLQNILDSLANKGDMKKAALDKALTELVTSEYVTCKEYGKAKLYLIRQKNIALPSAEETAALDSRLETLANELEELSAECQVLEAKISELSAQPRTEEAKERVALLETETATIDERIEKLQVHCAGYDSSRRQYIQQQHERALKALRLRRSRARQIILQMAEGMERKPRELADEIGIESDSDDWLTASRSVVSNARSKAAV,soluble
5,MQEGVKVVVDSRELRSEVVKRLKLLGVKLEVKTLDVGDYIISEDVAIERKSANDLIQSIIDGGLFDQVKRLKEAYSRPIMIVEGSLYGIRNVHPNAIRGAIAAVTVDFGVPIIFSSTPEETAQYIFLIAKREQEEREKPVRIR,soluble
6,MQNKIVKIGNIDVANDKPFVLFGGMNVLESRDMAMQVCEAYVKVTEKLGVPYVFKASFDKANRSSIHSYRGPGMEEGLKIFQELKDTFGVKIITDVHEIYQCQPVADVVDIIQLPAFLARQTDLVEAMAKTGAVINVKKPQFLSPSQMGNIVEKIEECGNDKIILCDRGTNFGYDNLIVDMLGFSVMKKASKGSPVIFDVTHSLQCRDPFGAASSGRRAQVTELARSGLAVGIAGLFLEAHPNPNQAKCDGPSALPLSALEGFVSQMKAIDDLVKSFPELDTSIGSHHHHHH,soluble
7,MAHHHHHHMCAPLYVSPAVQELAQLNSEAERLMLKRAWCVHTKAHLLRELPWAARDVAAYRVALREALQSFTESQQDAFLIDVVYAQFVCAEGGVLRACVQHALFLDLTYDVRLQQWTLVPLHWNIFTTSAGALLLTLQSVLAGPHAQTPCTPPAAPATAARAPLIAHSRAHGTVDSASPLPEASTPASFVRVDPHDREALHRFMRLAFEQEGLSGELHASNRLVCAVVMDTFAIQLQSLQQSFFTGGGLGRLVEMEVRPGTLISFHLSLPELFVPSAPVAHVKMTVAGGTVMLECVRGTDLSTRRVTLPLGTSSLVASGAVGVNTATWKSSMTVVDMEALLWQCVCASAPS,not soluble
8,MNGLATSLGKGQESAIGGSSAIGEYIRPLPQPGDRPEPLSAKPTFLSRSGSARCRSESDMENERNSNTSKQRYSGKVHLCVARYSYNPFDGPNENPEAELPLTAGKYLYVYGDMDEDGFYEGELLDGQRGLVPSNFVDFVQDNESRLASTLGNEQDQNFINHSGIGLEGEHILDLHSPTHIDAGITDNSAGTLDVNIDDIGEDIVPYPRKITLIKQLAKSVIVGWEPPAVPPGWGTVSSYNVLVDKETRMNLTLGSRTKALIEKLNMAACTYRISVQCVTSRGSSDELQCTLLVGKDVVVAPSHLRVDNITQISAQLSWLPTNSNYSHVIFLNEEEFDIVKAARYKYQFFNLRPNMAYKVKVLAKPHQMPWQLPLEQREKKEAFVEFSTLPAGPPAPPQDVTVQAGVTPATIRVSWRPPVLTPTGLSNGANVTGYGVYAKGQRVAEVIFPTADSTAVELVRLRSLEAKGVTVRTLSAQGESVDSAVAAVPPELLVPPTPHPRPAPQSKPLASSGVPETKDEHLGPHARMDEAWEQSRAPGPVHGHMLEPPVGPGRRSPSPSRILPQPQGTPVSTTVAKAMAREAAQRVAESSRLEKRSVFLERSSAGQYAASDEEDAYDSPDFKRRGASVDDFLKGSELGKQMVS,not soluble
9,MNQVAPFYADHVGSILRTKGIKDAREKFQSGEITALELRKIENTEIKYIVEKQKEVGLKSITDGEFRRAWWHFDFLENLDGVEGYDAAGGIQFSKVQTKSHSVKITGPIDFTTHPFIEDFIFLKEAVGDNHVAKQTIPSPAMLHYRGDIEYQPYLDDAEKFANDLATAYQKAIQAFYDAGCRYLQLDDTSWSYLCSDEQREVVRQRGFDPETLQETYKNLINEAIKHKPADMVITMHICRGNFRSTWIAEGGYGPVAETLFGKLNIDGFFLEYDNERSGDFAPLKYVTRPDLKIVLGLITSKTGELEDEAAIKARIEEASEIVPLSQLRLSPQCGFASTEEGNILTEEEQWDKLRYVVRLANDIWGELEHHHHHH,soluble
10,MGSDKIHHHHHHMAIRTCFCTGVLPVTMDDLTSGYNIAEILTLEPEFLSMLGFTYKEAEVYLRYVLDTYTEGQDRFDDVWQLIVNNYDGYRFLPEAEPLFNSTILTYFFKKFAVRKGGIPSELVDENLRTDIGWIRHLTLSLENAKEMQDALVIDDELSYNVSDLSSKFNKRKFFDKSIYPVSLFYLGMTTLRSNYRMVLPNLTMRSIYMDYYNEMNHIEGNAQRYVPTYERFTEERRFEPLVQNYFEQYLGQFPAQVFDKINENFIRCSFFELCSRYLSSCYTFAIEQNNSAGRSDFEMTGIPGTDYYKDDRLAEFKYFKAKEAERMLALSDPRPEDVAQVLAYAKDTKVKFPHYHVRSYIVYICANKGWKCWEVTP,not soluble
11,MSFDLSWYGVPVEEEAKEEEAIVYGIPNNPELEQIIPAKFHSFVNEVIGDYNTLSDEEFWKKYNLREIWFDVKEYEEDNKAKNMLGTIIVFLLVEKEYILQLDYKEDLVDYIEDIDNYWGKEEVKLISFEVDNDQQYYAYVPKTAAIDSLYEVKLTEVEKIEEV,not soluble
12,MHFFDTHTHLNYLQQFTGEPLSQLIDNAKQADVQKILVVAVKEADFKTIQNMTALFPDNLCYGLGLHPLYIQEHAENDLILLEQALKNRDTNCTAVAEIGLERAIPDLLTDELWAKQCHFFESQLYLAKQFNLPVNIHSRKTHDQIFTFLKRIPLSKLGVVHGFSGSYDQAKRFVDLGYKIGVGGTITYERANKTRQAIAKLPLDALVLETDSPDMPVFGFQGQPNRPERIVESFKALCTLRNEPAELIKKLTWENACQIFSLEHHHHHH,not soluble
13,MGSDKIHHHHHHMKTQSQDRWFIWQLSEELEAKIRYREYGPPDSPFTPLLFIHGYGGMIEHWNDNIPSFDDRYRIYAMDLIGFGQSGKPNVRYSLALFAAQIKAFMHLKKLEKVTLVGHSMGAASSIIYAHHNPDSVRALVLANPSGLYGDSMDGVAKIFFGLVGSPLIGEMLFAAFANPVGVSQSLTPTYYNQKKVDLNLINQFSRPLQDRGAIFSYLSPSKRPHDFMLDGLKPCNYKGDAWLLWGAEDTALPPHKIIPEFQELLPQAGAYIIPKAGHCIHHDAHETFNNRLAQLLQRLE,not soluble
14,MTADKLVFFVNGRKVVEKNADPETTLLAYLRRKLGLSGTKLGCGEGGCGACTVMLSKYDRLQNKIVHFSANACLAPICSLHHVAVTTVEGIGSTKTRLHPVQERIAKSHGSQCGFCTPGIVMSMYTLLRNQPEPTMEEIENAFQGNLCRCTGYRPILQGFRTFARDGGCCGGDGNNPNCCMNQKKDHSVSLSPSLFKPEEFTPLDPTQEPIFPPELLRLKDTPRKQLRFEGERVTWIQASTLKELLDLKAQHPDAKLVVGNTEIGIEMKFKNMLFPMIVCPAWIPELNSVEHGPDGISFGAACPLSIVEKTLVDAVAKLPAQKTEVFRGVLEQLRWFAGKQVKSVASVGGNIITASPISDLNPVFMASGAKLTLVSRGTRRTVQMDHTFFPGYRKTLLSPEEILLSIEIPYSREGEYFSAFKQASRREDDIAKVTSGMRVLFKPGTTEVQELALCYGGMANRTISALKTTQRQLSKLWKEELLQDVCAGLAEELHLPPDAPGGMVDFRCTLTLSFFFKFYLTVLQKLGQENLEDKCGKLDPTFASATLLFQKDPPADVQLFQEVPKGQSEEDMVGRPLPHLAADMQASGEAVYCDDIPRYENELSLRLVTSTRAHAKIKSIDTSEAKKVPGFVCFISADDVPGSNITGICNDETVFAKDKVTCVGHIIGAVVADTPEHTQRAAQGVKITYEELPAIITIEDAIKNNSFYGPELKIEKGDLKKGFSEADNVVSGEIYIGGQEHFYLETHCTIAVPKGEAGEMELFVSTQNTMKTQSFVAKMLGVPANRIVVRVKRMGGGFGGKVTRSTVVSTAVALAAYKTGRPVRCMLDRDEDMLITGGRHPFLARYKVGFMKTGTVVALEVDHFSNVGNTQDLSQSIMERALFHMDNCYKIPNIRGTGRLCKTNLPSNTAFRGFGGPQGMLIAECWMSEVAVTCGMPAEEVRRKNLYKEGDLTHFNQKLEGFTLPRCWEECLASSQYHARKSEVDKFNKENCWKKRGLCIIPTKFGISFTVPFLNQAGALLHVYTDGSVLLTHGGTEMGQGLHTKMVQVASRALKIPTSKIYISETSTNTVPNTSPTAASVSADLNGQAVYAACQTILKRLEPYKKKNPSGSWEDWVTAAYMDTVSLSATGFYRTPNLGYSFETNSGNPFHYFSYGVACSEVEIDCLTGDHKNLRTDIVMDVGSSLNPAIDIGQVEGAFVQGLGLFTLEELHYSPEGSLHTRGPSTYKIPAFGSIPIEFRVSLLRDCPNKKAIYASKAVGEPPLFLAASIFFAIKDAIRAARAQHTGNNVKELFRLDSPATPEKIRNACVDKFTTLCVTGVPENCKPWSVRV,soluble
15,MGSDKIHHHHHHMSNPLLKQICELDVFTLLVFKTIFDTGHANSAAKALDVSAPKISRCLNALRLTFNDELFYRRQQGLKPTPLAESLYAAICQFTNSVYNLEQSALQIQNTHNTTDLPLHIAVSNELLSFLAPQLSSPDVITQLGKIRLHKWQENSAELIHAGELDFGITLENADNKELSYTRLGCISGIYVVASKHHPIWQTELSITLEHICRHPFLCLDLKGFNSKVDPLEFFCQRQGILLPSIDRVIDREEWYAHLLTIQSVAFCSSIDMHTVKHMPGLKLVPLSLTELHRLHDSMLPPQYYLVEKPRARRRYSQTQCDIVVSPLITTLIPTL,not soluble
16,MNTTLFRWPVRVYYEDTDAGGVVYHASYVAFYERARTEMLRHHHFSQQALMAERVAFVVRKMTVEYYAPARLDDMLEIQTEITSMRGTSLVFTQRIVNAENTLLNEAEVLVVCVDPLKMKPRALPKSIVAEFKQ,soluble
17,MAHHHHHHMPLIVPTPPAHPAQSPNQANGELLGRLMKLYRALCVRHDELGQEVILNDILAFLTRTHQHDMAESVIATCEISLPHRSNNQAARYFYYVGLTRALRLEYVDANQCLQQALRKAPERAFGFRVAATKLALVVQLLLGEIPPRSDFLQKDMRESLSPYLQLASCVRFGQLSRFMSILQQHKNIFEHDRTYSLILRVRQHVIKTGLRRICHAYSRISIPDICFKLSMENPADAEYIIAKAIRDGVIDAVIDHEKGHLISSDTVDVYSTSEPLLALQRRIQFLNVTHNDAKRSMRYTAADPELEEERRKVDREEMDSALRAALEDEELGGTDFEDGLP,not soluble
